The target of assay [1] is T1, cynomolgus monkey CDH6 (on cells) (cynomolgus monkey, UniProt P55285 54-790 (human entry)).
T1 construct: Expressed from pcDNA3.1-cynoCDH6; also called cynoCDH6
T1 sequence: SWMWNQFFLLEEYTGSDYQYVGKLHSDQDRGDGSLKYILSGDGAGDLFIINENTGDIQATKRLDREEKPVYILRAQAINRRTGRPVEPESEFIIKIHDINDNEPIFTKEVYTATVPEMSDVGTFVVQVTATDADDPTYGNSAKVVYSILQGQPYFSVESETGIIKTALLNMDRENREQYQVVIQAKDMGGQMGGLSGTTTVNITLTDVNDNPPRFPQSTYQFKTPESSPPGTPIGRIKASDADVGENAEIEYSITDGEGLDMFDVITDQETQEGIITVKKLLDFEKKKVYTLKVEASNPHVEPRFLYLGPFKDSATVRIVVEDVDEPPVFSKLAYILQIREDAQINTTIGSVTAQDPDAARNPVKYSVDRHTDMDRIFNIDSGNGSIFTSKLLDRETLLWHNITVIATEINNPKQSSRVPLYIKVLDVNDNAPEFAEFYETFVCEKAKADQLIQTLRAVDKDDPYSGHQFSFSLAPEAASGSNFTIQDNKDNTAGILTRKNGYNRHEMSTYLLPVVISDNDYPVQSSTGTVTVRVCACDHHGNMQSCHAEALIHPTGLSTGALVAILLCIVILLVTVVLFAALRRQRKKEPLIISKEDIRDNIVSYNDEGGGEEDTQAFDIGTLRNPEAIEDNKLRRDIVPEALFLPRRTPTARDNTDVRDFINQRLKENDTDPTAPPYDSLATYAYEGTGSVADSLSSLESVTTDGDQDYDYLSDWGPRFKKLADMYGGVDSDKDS
The assay can be described thus: Cell-ELISA and flow cytometry screening of hybridoma supernatants on transfected cells. As to the method:
A coloring reaction was carried out with occasional stirring. Thereafter, 1 M HCl was added to the plate (100 μL/well) to terminate the coloring reaction, followed by measurement of the absorbance at 490 nm using a plate reader (ENVISION: PerkinElmer, Inc.).
The binding specificity to cynomolgus monkey CDH6 of an antibody produced from the human CDH6- and cynomolgus monkey CDH6-binding antibody-producing hybridomas that had been selected by Cell-ELISA in Example 1)-4 was further confirmed by flow cytometry. […] Thereafter, the cells were suspended by the addition of the culture supernatant from each hybridoma. The cells were left standing at 4° C. for 1 hour. The cells were washed twice with PBS supplemented with 5% FBS, and thereafter, the cells were suspended by the addition of Anti-Rat IgG FITC conjugate (Sigma-Aldrich Co. LLC) that had been 500-fold diluted with PBS supplemented with 5% FBS. The cells were left standing at 4° C. for 1 hour. The cells were washed twice with PBS supplemented with 5% FBS, and then re-suspended in PBS supplemented with 5% FBS and 2 μg/ml 7-aminoactinomycin D (Molecular Probes, Inc.), followed by detection using a flow cytometer (FC500; Beckman Coulter, Inc.). The data was analyzed using FlowJo (Tree Star, Inc.). After dead cells were removed from analysis by gating out 7-aminoactinomycin D-positive cells, a histogram of the FITC fluorescence intensity of live cells was generated.
(In an ELISA, binding on a coated surface is turned into a signal by an enzyme label.)

The target of assay [2] is T2, EC3 deletion mutant of human CDH6 (human, UniProt P55285 54-790).
T2 construct: In p3×FLAG-CMV-9; also called EC3-deleted hCDH6
T2 sequence: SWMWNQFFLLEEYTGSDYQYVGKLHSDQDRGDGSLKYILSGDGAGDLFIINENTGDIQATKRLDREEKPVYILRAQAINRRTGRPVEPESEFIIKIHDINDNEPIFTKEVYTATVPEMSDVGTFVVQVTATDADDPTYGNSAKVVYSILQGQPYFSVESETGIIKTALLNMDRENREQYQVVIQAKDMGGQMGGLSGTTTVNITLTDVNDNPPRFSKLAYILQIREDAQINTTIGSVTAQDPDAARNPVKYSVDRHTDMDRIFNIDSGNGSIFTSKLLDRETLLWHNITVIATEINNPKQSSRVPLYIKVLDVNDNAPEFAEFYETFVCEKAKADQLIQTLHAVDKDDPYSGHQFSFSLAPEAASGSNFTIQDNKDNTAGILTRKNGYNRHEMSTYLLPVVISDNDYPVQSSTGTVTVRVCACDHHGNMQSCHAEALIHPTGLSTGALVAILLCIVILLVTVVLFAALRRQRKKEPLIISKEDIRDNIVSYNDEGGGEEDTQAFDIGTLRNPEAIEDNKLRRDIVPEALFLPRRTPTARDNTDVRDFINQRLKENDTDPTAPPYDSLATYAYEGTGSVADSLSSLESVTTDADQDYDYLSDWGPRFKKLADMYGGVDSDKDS
The assay can be described thus: flow cytometry; 293α cells transfected with EC3-deleted hCDH6 (open) vs untransfected control cells (shaded); anti-rat IgG-FITC. As to the method: The cells were cultured overnight under conditions of 37° C. and 5% CO₂, and thereafter, a cell suspension was prepared. […] Thereafter, the cells were suspended by the addition of each of the 4 rat anti-CDH6 monoclonal antibodies (clone Nos: rG019, rG055, rG056 and rG061), which had been prepared in Example 1)-7, or rat IgG control (R&D Systems, Inc.) (final concentration: 20 nM). The cells were left standing at 4° C. for 1 hour. The cells were washed twice with PBS supplemented with 5% FBS, and then suspended by the addition of Anti-Rat IgG (whole molecule)-FITC antibody produced in rabbit (Sigma-Aldrich Co. LLC) that had been 50-fold diluted with PBS supplemented with 5% FBS. The cells were left standing at 4° C. for 1 hour. The cells were washed twice with PBS supplemented with 5% FBS, followed by detection using a flow cytometer (Canto II; BD Biosciences). The data was analyzed using FlowJo (Tree Star, Inc.). In the histograms of FIGS. 2-1 to 2-6, the abscissa depicts FITC fluorescence intensity indicating the amount of the antibody bound, and the ordinate depicts cell count. […] Fluorescence intensity is enhanced when the antibody binds to full-length hCDH6 or each EC domain deletion mutant on the surface of cells. The rat IgG control binds to none of the transfected cells.

B1: rG055 antibody (antibody, V domains shown)
VH: EVQLQESGPGLVRPSQSLSLSCSVTDYSITSNYWGWIRRFPGNKMEWMGYITYSGYTSYNPSLQSRISITRDTSKNQFFLQLNSVTAEDTATYYCARSINHGGYSYVVDAWGPGASVTVSS
VL: DVQMTHSPSYLAASPGESVSISCKTSKNISNYLVWYQQKPGEAYKLLIYSGSTLQSGTPSRFSGSGSGTDFTLTIRSLEPEDFGLYFCQQYYEKPFTFGSGTKLEIKR
notes: Rat monoclonal purified from hybridoma; also called rat anti-CDH6 monoclonal antibody clone rG055
Consider B1, for which the binding result is recorded as “binds” in assay [1] and “no binding (tested: 20 nM (single concentration))” in assay [2].

B2: rG061 antibody (antibody, V domains shown)
VH: EVQLQESGPGLVKPSQSLSLTCSVTGYSITTYYWGWIRKFPGNKMEWMGYISYSGRTSYNPSLKSRMSITRDASKNQFFLQLNSVTTDDTATYYCARSPINHGGYWYFDFWGPGTMVTVSS
VL: DVQMTQSPSYLAASPGESVSISCKATKSISNYLAWYQQKPGEAYKVLIYSGSTLQSGTPSRFSGSGSGTDFTLTIRSLEPEDFGLYSCQQYYEKPLTFGSGTKLEIKR
notes: Rat monoclonal purified from hybridoma; also called rat anti-CDH6 monoclonal antibody clone rG061
As for B2, the results for the binding result in assay [1] and in assay [2] were “binds” and “no binding (tested: 20 nM (single concentration))”, respectively.

B3: rG056 antibody (antibody, V domains shown)
VH: EVQLQESGPGLVKPSQSLSLTCSVTDYSITTYFWGWIRKFPGNKMEWMGYMSYRGGTSYNPSLKSRISITRDTSKNQFFLQLNSVTTEDTATYYCARCPNYGGHSLVFDYWGQGVMVTVSS
VL: DVQMTQSPSSLAASPGESVSISCRATKSIGIYLAWYQQKPGKTFKLLIYSGSTLQSGTPSRFSGSGSGTDFTLTIRSLEPEDFGLYFCQQFYENPFTFGSGTKLEIRR
notes: Rat monoclonal purified from hybridoma; also called rat anti-CDH6 monoclonal antibody clone rG056
B3: the binding result in assay [1] is recorded as “binds”; in assay [2], “no binding (tested: 20 nM (single concentration))”.

B4: rG019 antibody (antibody, V domains shown)
VH: QVQLQQSGAELVKPGSSVKISCKASGYTFTRNFMHWIKQQPGNGLEWIGWIYCGDGETEYNQKFNGKATLTADRSSSTAYMELSRLTSEDSAVYFCARGVYGGFAGGYFDFWGQGVMVTVSS
VL: DIQMTQSPSLLSASVGDRVTLNCKASQNIYKNLAWYQQKLGEGPKLLIYDANTLQTGIPSRFSGSGSGSDFTLTISSLQPEDVATYFCQQYYSGWAFGGVTNLELKRA
notes: Rat monoclonal purified from hybridoma; also called rat anti-CDH6 monoclonal antibody clone rG019
Turning to B4, the binding result in assay [1] is “binds”; in assay [2], “no binding (tested: 20 nM (single concentration))”.

The values above are taken from patent publication US20200171163A1 (Daiichi Sankyo, published 2020).
